The values below come from US20220119490A1 (Genentech, published 2022).

Test [1] addresses T1, PTPRD E406K variant extracellular domain (human, UniProt P23468 21-1265).
T1 construct: extracellular domain; also called FN1 mutant
T1 sequence (looked up): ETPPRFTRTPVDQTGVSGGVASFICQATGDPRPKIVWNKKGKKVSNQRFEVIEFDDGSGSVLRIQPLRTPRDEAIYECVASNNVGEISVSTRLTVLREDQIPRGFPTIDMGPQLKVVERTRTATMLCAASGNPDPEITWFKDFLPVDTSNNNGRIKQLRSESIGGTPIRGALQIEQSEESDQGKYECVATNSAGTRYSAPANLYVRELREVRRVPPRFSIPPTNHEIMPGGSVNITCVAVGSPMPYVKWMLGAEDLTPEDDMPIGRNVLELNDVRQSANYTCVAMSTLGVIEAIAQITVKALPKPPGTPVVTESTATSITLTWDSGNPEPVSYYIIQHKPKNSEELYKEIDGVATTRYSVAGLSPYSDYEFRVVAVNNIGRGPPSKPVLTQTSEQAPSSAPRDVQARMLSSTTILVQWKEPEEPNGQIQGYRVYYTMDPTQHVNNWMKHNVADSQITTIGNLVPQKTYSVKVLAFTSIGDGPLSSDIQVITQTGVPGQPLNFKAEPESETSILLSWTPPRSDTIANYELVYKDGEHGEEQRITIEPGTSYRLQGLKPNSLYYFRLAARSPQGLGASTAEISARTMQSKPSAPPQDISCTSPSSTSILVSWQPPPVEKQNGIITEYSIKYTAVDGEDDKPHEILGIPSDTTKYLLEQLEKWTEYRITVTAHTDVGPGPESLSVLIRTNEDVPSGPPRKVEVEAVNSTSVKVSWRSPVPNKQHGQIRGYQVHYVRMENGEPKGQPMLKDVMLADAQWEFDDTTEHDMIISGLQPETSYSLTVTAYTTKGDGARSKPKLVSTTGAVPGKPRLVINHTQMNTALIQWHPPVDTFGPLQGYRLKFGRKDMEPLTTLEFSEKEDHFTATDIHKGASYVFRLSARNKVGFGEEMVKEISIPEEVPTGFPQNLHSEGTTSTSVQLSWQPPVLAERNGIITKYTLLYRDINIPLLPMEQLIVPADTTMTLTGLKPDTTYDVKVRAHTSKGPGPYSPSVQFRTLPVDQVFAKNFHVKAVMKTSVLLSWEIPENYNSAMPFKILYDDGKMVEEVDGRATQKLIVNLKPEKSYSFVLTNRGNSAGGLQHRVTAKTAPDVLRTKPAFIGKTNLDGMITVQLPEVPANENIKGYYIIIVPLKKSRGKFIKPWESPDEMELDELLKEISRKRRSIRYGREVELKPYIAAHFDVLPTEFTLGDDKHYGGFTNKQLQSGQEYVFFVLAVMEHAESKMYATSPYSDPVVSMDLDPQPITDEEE
Description: extracellular interaction screen: pentameric PTPRD variant ECD on ECD-Fc prey (FIG. 5L).

Test [2] deals with T2, PTPRD G285E variant extracellular domain (human, UniProt P23468 21-1265).
T2 construct: extracellular domain; also called IG3 mutant
T2 sequence (looked up): T1 sequence (looked up) with G265E, K386E
The test is described as above.

Substitutions are numbered along the chain they refer to.

B1: LRRC4B extracellular domain (receptor, human, UniProt Q9NT99 36-576, looked up)
chain: AGGGGVAVTSAAGGGSPPATSCPVACSCSNQASRVICTRRDLAEVPASIPVNTRYLNLQENGIQVIRTDTFKHLRHLEILQLSKNLVRKIEVGAFNGLPSLNTLELFDNRLTTVPTQAFEYLSKLRELWLRNNPIESIPSYAFNRVPSLRRLDLGELKRLEYISEAAFEGLVNLRYLNLGMCNLKDIPNLTALVRLEELELSGNRLDLIRPGSFQGLTSLRKLWLMHAQVATIERNAFDDLKSLEELNLSHNNLMSLPHDLFTPLHRLERVHLNHNPWHCNCDVLWLSWWLKETVPSNTTCCARCHAPAGLKGRYIGELDQSHFTCYAPVIVEPPTDLNVTEGMAAELKCRTGTSMTSVNWLTPNGTLMTHGSYRVRISVLHDGTLNFTNVTVQDTGQYTCMVTNSAGNTTASATLNVSAVDPVAAGGTGSGGGGPGGSGGVGGGSGGYTYFTTVTVETLETQPGEEALQPRGTEKEPPGPTTDGVWGGGRPGDAAGPASSSTTAPAPRSSRPTEKAFTVPITDVTENALKDLDDVMKTTK
notes: extracellular domain; ECD-Fc prey; also called NGL-3; netrin-G ligand-3
Regarding B1, the binding result in test [1] and in test [2] was “no binding” each time.
